# Data as given in patent US20230414780A1 (VECT HORUS, published 2023).
# B1: C12b (VHH)
# VHH: QVQLVQSGGGLVQPGGSLRLSCAASGFTFSAYAMSWVRQAPGKGRELVASISRTGDGTYYADGMKGRFTISRDNAENTVSLQINSLKPEDTAIYYCGAGINPTKYWGQGTQVTVSS
# B2: E2 (VHH)
# VHH: QVQLVQSGGGLVQAGGSLRLSCAASGSIFSDITLAWHRQIPGKEREWVAGISRSGSPSYRDSVKGRFTISRDNAKNTVFLQMNSLEPEDTGVYYCYSRGYWGQGTQVTVSS
# B3: H7 (VHH)
# VHH: EVQLVESGGGLVQAGGSLRLSCTASGRPISDYPMGWFRRAPGKDRELVASISRTGDGTYYANSMKERFTISRDNAQNTVSLQISSLKPEDTAVYYCGAGINPTRYWGQGTQVTVSS
# B4: C3 (VHH)
# VHH: EVQLVQSGGGLVQAGGSLRLSCAASGRDFSDTSMAWHRQAPGKERLWVAGIRSGSTSTSYADSVKGRFTISRDDAKNTVYLQMDNLTPEDTAVYFCYSKGYWGQGTQVTVSS
# B5: VHH C (B6) (VHH)
# VHH: EVQLVESGGGLVQPGGSLRLSCTASGGPIEQYPMGWFRRAPGKERELVASISRSGDGTYYAISSVKGRFTISRDNAENTVFLQMNSLKPDDTAVYYCGAGINPTKIWGQGTQVTVSS
# B6: B6^V1 (VHH)
# VHH: EVQLVESGGGLVQPGGSLRLSCTASGGPIEQYPMGWFRRAPGKERNLVASISRSGDGTYYAISSVKGRFTISRDNAENTVFLQMNSLKPDDTAVYYCGAGINPTKIWGQGTQVTVSS
# B7: E4 (VHH)
# VHH: EVQLVESGGGLVQAGDSLRLSCTASGLPLSNYPMGWFRRAPGKERELIASISRTGDGTYYADSSVKGRFTISRDNAENTVSLQMNSLKPEDTAVYYCGAGINPTKYWGQGTQVTVSS
# B8: B6^V3 (VHH)
# VHH: EVQLVESGGGLVQPGGSLRLSCTASGGPIEQYPMGWFRRAPGKERELVASSSRSGDGTYYAISSVKGRFTISRDNAENTVFLQMNSLKPDDTAVYYCGAGINPTKIWGQGTQVTVSS
# B9: B6^V4 (VHH)
# VHH: EVQLVESGGGLVQPGGSLRLSCTASGGPIEQYPMGWFRRAPGKERESVASISRSGDGTYYAISSVKGRFTISRDNAENTVFLQMNSLKPDDTAVYYCGAGINPTKIWGQGTQVTVSS
# B10: B6^V2 (VHH)
# VHH: EVQLVESGGGLVQPGGSLRLSCTASGGPIEQYPMGWFRRAPGKERELVASFSRSGDGTYYAISSVKGRFTISRDNAENTVFLQMNSLKPDDTAVYYCGAGINPTKIWGQGTQVTVSS
# B11: C5^neg (control) (VHH)
# VHH: EVQLVESGGGVVQPGGSLKLSCVASGTDFSINFIRWYRQAPGKQREFVAGFTATGNTNYADSMKGRFTISRDNTKNAVYLQIDSLKPEDTAVYYCAMADKWGQGTQVTVSS
# notes: negative control of C5 with 2 alanines in CDR3
# B12: F2a (VHH)
# VHH: EVQLVESGGGLVQPGESLRLSCTASESISIYGVGWYRQAPGEQRVLVAHLKRNGLTEYKDSVKGRFTISRDNARNTIYLEMKNLKPEDTAIYYCNTALGSVLPWGRGTQVTVSS
# B13: B7 (VHH)
# VHH: QVQLVQSGGGLVQAGGSLTLSCTASGRPLSDYPMGWFRRAPEKERELVASISRTGDGTYYADGMRGRFTISRDNSENTVSLQMNNLKPEDTAVYYCGAGINPTKYWGQGTQVTVSS
# B14: B8^V22 (VHH)
# VHH: EVQLVESGGGVVQPGGSLRLSCAASGEIFSINQMRWYRQAPGKQREWVAGFTRDGSTNYPDSAKGRFTISRDNAKNTVYLQIDSLKPEDTAVYYCYMLDTWGQGTQVTVSS
# B15: B8^V24 (VHH)
# VHH: EVQLVESGGGVVQPGGSLRLSCAASGEIFSINFMEWYRQAPGKQREWVAGFTRDGSTNYPDSAKGRFTISRDNAKNTVYLQIDSLKPEDTAVYYCYMLDTWGQGTQVTVSS
# B16: B8^V37 (VHH)
# VHH: EVQLVESGGGVVQPGGSLRLSCAASGEIFSINFMRWYRQAPGKQREWVAGFTRDGSTNYPDSAKGRFTISEDNAKNTVYLQIDSLKPEDTAVYYCYMLRTWGQGTQVTVSS
# B17: B8^V40 (VHH)
# VHH: EVQLVESGGGVVQPGGSLRLSCAASGEIKSINFMRWYRQAPGKQREWVSGFTRDGSTNYPDSAKGRFTISRDNAKNTVYLQIDSLKPEDTAVYYCYMLDTWGQGTQVTVSS
# B18: B8^V38 (VHH)
# VHH: EVQLVESGGGVVQPGGSLRLSCAASGEIRSINFMRWYRQAPGKQREWVAGFTRTGSTNYPDSAKGRFTISRDNAKNTVYLQIDSLKPEDTAVYYCYMLDTWGQGTQVTVSS
# B19: B8^V39 (VHH)
# VHH: EVQLVESGGGVVQPGGSLRLSCAASGEIFKINFMRWYRQAPGKQREWVAGFTRDGSTNYPDSAKGRFTISRDNAKNTVYLQIDSLKPEDTAVYYCYMLDTWGQGTQVTVSS
# Legend:
# [1] = molecular target: T1, human transferrin receptor (hTfR) fused to EGFP, on CHO cells (human, UniProt P02786 1-760); experiment: apparent Kd, flow cytometry, CHO cells
# T1 construct: whole, on cells; also called human TfR; CHO-hTfR-EGFP; not shown: EGFP from pEGFP-C1 vector, fused to the N-terminal (intracellular) end of hTfR
# Method in brief: (§1)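 CHO cells expressing TfR-EGFP fusions, blocked in PBS/BSA 2%, then incubated with increasing VHH concentrations for 1 hr at 4° C. Bound VHH detected via anti-6His antibody and Alexa647 secondary, cells PFA-fixed, read by flow cytometry. Apparent Kd from nonlinear fit.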
# [2] = molecular target: T2, mouse transferrin receptor (mTfR) fused to EGFP, on CHO cells (mouse, UniProt Q62351 1-763); experiment: flow cytometry, CHO cells
# T2 construct: whole, on cells; also called mouse TfR; CHO-mTfR-EGFP; not shown: EGFP
# Description: The binding properties of VHHs with affinity for the TfR from different species (i.e., human (h), mouse (m) and rhesus monkey (rh)) were tested using flow cytometry, and apparent affinities (Kd app) were determined. All experiments were performed in 96 well plates using 2×10⁵ cells/well, at 4° C. with shaking. CHO cell lines expressing the hTfR, mTfR or rhTfR fused to EGFP were saturated with PBS/BSA 2% solution during 30 min to avoid nonspecific binding, followed by incubation with purified VHHs at increasing concentrations for 1 hr. After one wash in PBS/BSA 2%, cells were incubated for 1 hr with an anti-6His tag antibody (mouse), washed twice with PBS/BSA 2%, and incubated for 1 hr with an Alexa647-conjugated anti-mouse secondary antibody. After two last washes in PBS/BSA 2%, cells were fixed by incubation for 15 min with PBS/PFA 2%, washed once with PBS and finally resuspended in PBS. Fluorescence levels were assessed using an Attune NxT flow cytometer (Thermo Fisher Scientific). Experimental data were fitted with GraphPad Prism® software using a nonlinear fit to determine the apparent Kd constants. […] Table 5 hereafter summarizes apparent Kd obtained for the tested VHHs.
# [3] = molecular target: T3, human TfR ectodomain fused to a mouse IgG1 Fc fragment (human, UniProt P02786 89-760); experiment: SPR, at equilibrium
# T3 construct: extracellular domain; ectodomain fused to the N-terminal end of the Fc, made in-house; not shown: mouse IgG1 Fc fragment
# Description: (§2) Binding properties of some VHHs were also evaluated using Surface Plasmon Resonance (SPR) experiments. The human, mouse and rhesus monkey TfR (having respectively GeneBank number NM_003234.2, NM_011638, NC_041755.1) ectodomains were fused to the N-terminal end of a mouse IgG1 Fc fragment and the recombinant proteins were produced and purified in-house. Interaction of VHHs with the receptors was tested using a Biacore T200 (GE Healthcare). Receptors were immobilized on an HC 1500M or a CM5 sensor chip (Xantec) either directly or on an anti-mouse IgG previously immobilized. VHHs were injected over flowcell by using the single-cycle kinetic or the multiple-cycle kinetic methods.
# [4] = molecular target: T3, human TfR ectodomain fused to a mouse …; experiment: SPR, kinetic
# Description: as §2
# [5] = molecular target: T4, rhesus monkey transferrin receptor (rhTfR) fused to EGFP, on CHO cells (rhesus monkey); experiment: apparent Kd, flow cytometry, CHO cells
# T4 construct: whole, on cells; also called rhesus monkey TfR
# Method in brief: as §1
# [6] = molecular target: T2, mouse transferrin receptor (mTfR) fused …; experiment: apparent Kd, flow cytometry, CHO cells
# Method in brief: as §1
# [7] = molecular target: T5, rhesus monkey TfR ectodomain fused to a mouse IgG1 Fc fragment (rhesus monkey, UniProt I0FKY7 89-760); experiment: SPR, at equilibrium
# T5 construct: extracellular domain; not shown: mouse IgG1 Fc fragment
# Description: as §2
# [8] = molecular target: T5, rhesus monkey TfR ectodomain fused to a …; experiment: SPR, kinetic
# Description: as §2
# T3 sequence (P02786 89-760): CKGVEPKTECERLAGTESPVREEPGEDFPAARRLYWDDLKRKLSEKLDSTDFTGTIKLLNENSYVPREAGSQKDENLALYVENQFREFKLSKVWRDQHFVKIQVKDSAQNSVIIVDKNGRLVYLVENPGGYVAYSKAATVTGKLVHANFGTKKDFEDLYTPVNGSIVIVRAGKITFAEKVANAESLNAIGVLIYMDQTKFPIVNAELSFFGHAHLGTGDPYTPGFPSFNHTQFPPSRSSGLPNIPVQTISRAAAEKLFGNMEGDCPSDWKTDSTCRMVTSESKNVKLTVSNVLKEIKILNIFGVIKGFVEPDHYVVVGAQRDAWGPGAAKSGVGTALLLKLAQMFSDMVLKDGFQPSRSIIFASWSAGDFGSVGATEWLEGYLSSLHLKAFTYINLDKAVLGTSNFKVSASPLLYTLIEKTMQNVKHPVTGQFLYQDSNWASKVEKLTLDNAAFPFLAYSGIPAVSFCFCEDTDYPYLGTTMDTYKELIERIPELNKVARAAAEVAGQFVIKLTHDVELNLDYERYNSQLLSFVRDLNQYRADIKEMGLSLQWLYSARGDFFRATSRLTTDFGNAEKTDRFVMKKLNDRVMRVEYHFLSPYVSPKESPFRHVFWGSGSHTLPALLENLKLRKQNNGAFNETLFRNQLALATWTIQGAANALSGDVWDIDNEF
# T2 sequence (Q62351 whole entry, the tested form may be a part): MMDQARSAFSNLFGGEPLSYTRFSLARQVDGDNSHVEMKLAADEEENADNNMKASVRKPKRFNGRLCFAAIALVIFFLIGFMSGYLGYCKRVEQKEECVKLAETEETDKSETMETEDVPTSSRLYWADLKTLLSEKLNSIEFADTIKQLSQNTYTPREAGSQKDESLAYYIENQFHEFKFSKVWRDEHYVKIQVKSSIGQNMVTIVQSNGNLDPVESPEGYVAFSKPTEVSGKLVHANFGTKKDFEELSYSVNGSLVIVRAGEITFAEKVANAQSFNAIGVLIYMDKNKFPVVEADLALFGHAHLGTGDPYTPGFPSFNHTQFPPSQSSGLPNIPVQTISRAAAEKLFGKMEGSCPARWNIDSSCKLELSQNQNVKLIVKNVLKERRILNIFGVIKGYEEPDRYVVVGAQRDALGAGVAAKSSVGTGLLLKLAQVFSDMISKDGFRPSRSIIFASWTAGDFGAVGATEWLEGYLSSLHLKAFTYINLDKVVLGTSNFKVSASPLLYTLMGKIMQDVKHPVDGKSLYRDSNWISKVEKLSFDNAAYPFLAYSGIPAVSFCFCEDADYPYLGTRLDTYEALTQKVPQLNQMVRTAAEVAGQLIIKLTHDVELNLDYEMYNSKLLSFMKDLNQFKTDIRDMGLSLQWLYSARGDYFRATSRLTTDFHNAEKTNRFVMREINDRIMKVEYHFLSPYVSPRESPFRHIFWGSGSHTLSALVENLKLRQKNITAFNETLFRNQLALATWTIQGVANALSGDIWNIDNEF
# T1 sequence (P02786 whole entry, the tested form may be a part): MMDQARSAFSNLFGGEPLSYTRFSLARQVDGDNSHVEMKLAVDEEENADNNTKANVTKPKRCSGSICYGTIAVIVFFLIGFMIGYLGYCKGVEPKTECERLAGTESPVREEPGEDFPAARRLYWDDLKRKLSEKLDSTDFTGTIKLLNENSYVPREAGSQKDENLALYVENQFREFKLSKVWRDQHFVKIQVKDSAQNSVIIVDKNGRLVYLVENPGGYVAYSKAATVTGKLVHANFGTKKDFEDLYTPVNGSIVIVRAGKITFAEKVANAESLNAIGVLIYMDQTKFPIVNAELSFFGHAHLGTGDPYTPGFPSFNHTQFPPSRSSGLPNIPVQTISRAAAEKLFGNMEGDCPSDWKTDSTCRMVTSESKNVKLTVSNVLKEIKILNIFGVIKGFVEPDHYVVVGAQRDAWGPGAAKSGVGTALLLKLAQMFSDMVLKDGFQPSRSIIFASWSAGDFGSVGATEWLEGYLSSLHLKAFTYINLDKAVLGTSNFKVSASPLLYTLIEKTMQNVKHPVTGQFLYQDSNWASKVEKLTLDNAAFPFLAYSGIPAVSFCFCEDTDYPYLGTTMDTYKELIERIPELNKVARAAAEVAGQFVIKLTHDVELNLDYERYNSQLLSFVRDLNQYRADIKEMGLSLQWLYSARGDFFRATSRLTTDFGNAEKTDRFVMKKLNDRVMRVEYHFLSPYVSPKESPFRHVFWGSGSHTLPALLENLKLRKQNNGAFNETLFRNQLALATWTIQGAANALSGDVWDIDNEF
Binder,Kd [1] [nM],binding result [2],Kd [3] [nM],Kd [4] [nM],koff [4] [s⁻¹],kon [4] [M⁻¹ s⁻¹],Kd [5] [nM],Kd [6] [nM],Kd [7] [nM],Kd [8] [nM],koff [8] [s⁻¹],kon [8] [M⁻¹ s⁻¹]
B1,630,no binding,2440,–,–,–,–,–,–,–,–,–
B2,2.5,no binding,–,–,–,–,–,–,–,–,–,–
B3,–,no binding,–,1.3,0.00147,1.13e+06,–,–,–,–,–,–
B4,–,no binding,–,0.559,0.00249,5.9e+06,4230,–,–,–,–,–
B5,2.1,no binding,–,0.659,0.00121,1.73e+06,–,–,–,–,–,–
B6,2.3,no binding,–,–,–,–,–,–,–,–,–,–
B7,3.1,no binding,–,1.25,0.00189,1.51e+06,–,–,–,–,–,–
B8,2.6,no binding,–,–,–,–,–,–,–,–,–,–
B9,5.9,no binding,–,–,–,–,–,–,–,–,–,–
B10,643,no binding,–,–,–,–,–,–,–,–,–,–
B11,–,no binding,–,–,–,–,–,–,–,–,–,–
B12,2.9,no binding,–,0.545,0.000752,1.39e+06,–,–,–,–,–,–
B13,1.9,no binding,–,0.652,0.000758,1.16e+06,–,–,–,–,–,–
B14,321,no binding,480,475,–,698000,971,–,–,–,–,–
B15,1010,no binding,–,–,–,–,–,–,–,–,–,–
B16,97,–,75.5,70.5,0.0493,699000,334,582,175,148,0.103,700000
B17,42,–,42.5,42.1,0.0283,672000,69,1580,39.8,34.8,0.02,575000
B18,23,–,35.8,32.2,0.0192,596000,123,1780,55.4,46.3,0.0255,549000
B19,16,–,40.3,39.1,0.0175,448000,200,1290,93.3,90.5,0.0327,362000
